Where “and” joins values, the source holds several entries; their conditions need not be identical. Identical values can stand only once. Entries after “also recorded” stand apart in the source; their conditions may differ.
Assays:
[1] = system: ovalbumin; test: Attempted induction of tolerance to ovalbumin; type: in vivo; details: ovalbumin with mannose terminated N-linked oligosaccharides
Source text: The titer in the tolerance dogs stayed low for several months and was studied in RO and SA for 6 months of weekly infusions (FIG. 2).

[2] = system: Hurler fibroblasts; test: Half maximal uptake (Kuptake) of iduronidase into Hurler fibroblasts; type: cell-based
Source text: It is especially preferred that the receptor has a Kuptake for the ligand of at least about 10^−6 M, usually at least about 10^−7 M more usually at least about 10^−8 M and preferably at least about 10^−9 M where Kuptake represents the concentration of ligand at which half maximal uptake occurs in a cell. Receptors of interest include the transferrin receptor, the melanotransferrin receptor, mannose 6-phosphate receptor, growth hormone receptor, and the like. Cognate ligands include: insulin-like growth factor II (IGF2), transferrin, growth hormone, insulin, and binding fragments thereof, particularly polypeptides having specific and high affinity receptors on diverse cell types. Single chain antibodies and binding agents from randomized phage display systems could be used if they have adequate affinity for the receptor. To determine the Kuptake of a ligand and receptor combination, methods known in the art may be used, for example see Kakkis et al. (1994) Protein Expr Purif 5(3):225-32 for assays used to determine the Kuptake of alpha-L-iduronidase. The disclosed methods are readily adapted to any ligand and receptor combination. Such assays are also useful in verifying the uptake of toleragens comprising exogenous high uptake moieties.
Enzyme Infusions. […] Animals monitored for an anaphylactic reaction. […]

[3] = dog, in vivo
Experimental: Canines were administered 14,000 U/kg/week α-L-iduronidase or higher dose as dose was ramped up, in a 50 mL infusion in saline containing 1 mg/mL canine albumin, 10 mM NaPO4, pH 5.8. Administered intravenously over 2 hours (1st hour 3,000 U/kg/hr; 2nd hour 11,000 U/kg/hr, or a higher rate in the 2nd hour depending on the dose). Animals were monitored for anaphylactic reaction.

[4] = system: IgA and IgE antibodies to iduronidase; test: ELISA for IgG, IgA and IgE antibodies to iduronidase in canine sera; type: in vivo; details: before vs after 12 weekly infusions with iduronidase
Source text: The tolerance regimen in canine prevents the induction of IgG as manifested by a decrease in total IgG response against iduronidase as compared to the IgG response observed in non-tolerant canines. […] Analyses of the immune sera of canines that were either tolerant (dogs […] and SA) or canine controls (dogs RU and UM) that had not received the tolerizing regimen were studied for the presence of IgG, IgA and IgE antibodies to iduronidase.

[5] = system: antibody titer to iduronidase; test: ELISA antibody titer to iduronidase in canines on weekly iduronidase infusions, with or without tolerance regimens
Experimental: Normal and MPS I canines were obtained from the MPS I canine colony at Harbor-UCLA. The dogs are a cross between beagles and Plott hounds and average 12-20 kg in weight. The canines were under 2 years of age and at least 4 months of age for these experiments.
Enzyme Infusions. […] For toleragenic infusions, 14,000 U/kg/week α-L-iduronidase in 50 mL infusion in saline with 1 mg/mL canine albumin, and 10 mM NaPO4 was administered intravenously over 2 hours (1st hour 3,000 U/kg/hr; 2nd hour 11,000 U/kg/hr). Animals monitored for an anaphylactic reaction.
Canines were initiated on immunosuppressive drugs at day 0, equivalent to 18 days prior to the first enzyme challenge. If scheduled, the canines received monoclonal antibodies by intravenous infusion (2-5 mg) just prior to ITI. On day 4, the dogs received, if scheduled, an intrathymic injection of iduronidase at 1 mg/kg. Two weeks later, the dogs were begun on a weekly schedule of iduronidase enzyme infusions consisting of a weekly intravenous infusion of 14,000 U/kg (0.056 mg/kg/wk) of human recombinant iduronidase.
All canines received 0.056 mg/kg/week rh iduronidase intravenous challenges. Pre treatment ELISA values represent serum antibody levels prior to first antigen challenge with iduronidase.
Iduronidase was the same high uptake iduronidase as described above. The canines were challenged with 0.58 mg/kg of enzyme administered intravenously on a weekly basis for 3-6 doses.

Molecule | induction of tolerance to ovalbumin [1] | Kuptake (enzyme concentration at half maximal uptake) [2] | anaphylactic / anaphylactoid reaction during the infusion [3] | increase in IgA or IgE titer to iduronidase [4] | mean antibody titer after 12 weekly infusions of rhIDU ([5]; ELISA, eight normal and MPS I canines vs eight control canines) | Antibody levels at week 15 ([5]; MPS I canines, iduronidase raised stepwise to 0.500 mg/kg/week at week 15) | titer on reexposure (anamnestic response) ([5]; canine Nitro, after nearly 6 months hiatus, 0.5 mg/kg/wk infusions) | further increase in antibody titer on higher therapeutic doses ([5]; immune responsive canines) | induction in antibody titer on rechallenge ([5]; non-tolerant canine RU, after 2 doses of enzyme following 4.5 month hiatus) | titers by week 14 of enzyme therapy ([5]; two MPS I canines previously treated with 0.5 mg/kg/wk, no tolerance regimen, 0.5 mg/kg) | mean antibody titer on higher therapeutic doses of iduronidase ([5]; up to 6 months, n=6 tolerant, n=2 immune responsive) | tolerance induction with this form of the toleragen ([5]; canines, applied with the tolerance regimen (CsA+Aza), listed as dephosphorylated rhIDU)
ovalbumin: non-phosphorylated protein antigen with mannose terminated N-linked oligosaccharides (protein, UniProt P01012 2-386, looked up) Ovalbumin: GSIGAASMEFCFDVFKELKVHHANENIFYCPIAIMSALAMVYLGAKDSTRTQINKVVRFDKLPGFGDSIEAQCGTSVNVHSSLRDILNQITKPNDVYSFSLASRLYAEERYPILPEYLQCVKELYRGGLEPINFQTAADQARELINSWVESQTNGIIRNVLQPSSVDSQTAMVLVNAIVFKGLWEKAFKDEDTQAMPFRVTEQESKPVQMMYQIGLFRVASMASEKMKILELPFASGTMSMLVLLPDEVSGLEQLESIINFEKLTEWTSSNVMEERKIKVYLPRMKMEEKYNLTSVLMAMGITDVFSSSANLSGISSAESLKISQAVHAAHAEINEAGREVVGSAEAGVDAASVSEEFRADHPFLFCIKHIATNAVLFFGRCVSP | did not succeed; also recorded: could not | – | – | – | – | – | – | – | – | – | – | –
iduronidase: recombinant human α-L-iduronidase, lysosomal hydrolase with mannose 6-phosphate marker (protein, UniProt P35475 28-653, looked up) Alpha-L-iduronidase: APHLVHVDAARALWPLRRFWRSTGFCPPLPHSQADQYVLSWDQQLNLAYVGAVPHRGIKQVRTHWLLELVTTRGSTGRGLSYNFTHLDGYLDLLRENQLLPGFELMGSASGHFTDFEDKQQVFEWKDLVSSLARRYIGRYGLAHVSKWNFETWNEPDHHDFDNVSMTMQGFLNYYDACSEGLRAASPALRLGGPGDSFHTPPRSPLSWGLLRHCHDGTNFFTGEAGVRLDYISLHRKGARSSISILEQEKVVAQQIRQLFPKFADTPIYNDEADPLVGWSLPQPWRADVTYAAMVVKVIAQHQNLLLANTTSAFPYALLSNDNAFLSYHPHPFAQRTLTARFQVNNTRPPHVQLLRKPVLTAMGLLALLDEEQLWAEVSQAGTVLDSNHTVGVLASAHRPQGPADAWRAAVLIYASDDTRAHPNRSVAVTLRLRGVPPGPGLVYVTRYLDNGLCSPDGEWRRLGRPVFPTAEQFRRMRAAEDPVAAAPRPLPAGGRLTLRPALRLPSLLLVHVCARPEKPPGQVTRLRALPLTQGQLVLVWSDEHVGSKCLWTYEIQFSQDGKAYTPVSRKPSTFNLFVFSPDTGAVSGSYRVRALDYWARPGPFSDPVPYLEVPVPRGPPSPGNP | – | about 1 nanomolar | serious clinical anaphylactic reaction | ~10 fold | 149 OD units/μl serum | > 500 OD Units | ≥ 400 | 2-3 fold | > 20 fold | 1800 and 2000 | 369 OD/μl serum | –
dephospho iduronidase: recombinant iduronidase dephosphorylated by incubation with acid phosphatase bound to beads (protein, UniProt P35475 28-653, looked up, dephosphorylated) Alpha-L-iduronidase: APHLVHVDAARALWPLRRFWRSTGFCPPLPHSQADQYVLSWDQQLNLAYVGAVPHRGIKQVRTHWLLELVTTRGSTGRGLSYNFTHLDGYLDLLRENQLLPGFELMGSASGHFTDFEDKQQVFEWKDLVSSLARRYIGRYGLAHVSKWNFETWNEPDHHDFDNVSMTMQGFLNYYDACSEGLRAASPALRLGGPGDSFHTPPRSPLSWGLLRHCHDGTNFFTGEAGVRLDYISLHRKGARSSISILEQEKVVAQQIRQLFPKFADTPIYNDEADPLVGWSLPQPWRADVTYAAMVVKVIAQHQNLLLANTTSAFPYALLSNDNAFLSYHPHPFAQRTLTARFQVNNTRPPHVQLLRKPVLTAMGLLALLDEEQLWAEVSQAGTVLDSNHTVGVLASAHRPQGPADAWRAAVLIYASDDTRAHPNRSVAVTLRLRGVPPGPGLVYVTRYLDNGLCSPDGEWRRLGRPVFPTAEQFRRMRAAEDPVAAAPRPLPAGGRLTLRPALRLPSLLLVHVCARPEKPPGQVTRLRALPLTQGQLVLVWSDEHVGSKCLWTYEIQFSQDGKAYTPVSRKPSTFNLFVFSPDTGAVSGSYRVRALDYWARPGPFSDPVPYLEVPVPRGPPSPGNP | – | too low to be calculated | – | – | – | – | – | – | – | – | – | did not allow induction of the tolerant state

Source: patent US7883707B2, “Induction of antigen specific immunnologic tolerance” (priority 2002, dated 2011)
